Experimental data: IntAct's records for PubMed 25096571

Target: FOXP3, Q9BZS1-1
Sequence (Q9BZS1 whole entry): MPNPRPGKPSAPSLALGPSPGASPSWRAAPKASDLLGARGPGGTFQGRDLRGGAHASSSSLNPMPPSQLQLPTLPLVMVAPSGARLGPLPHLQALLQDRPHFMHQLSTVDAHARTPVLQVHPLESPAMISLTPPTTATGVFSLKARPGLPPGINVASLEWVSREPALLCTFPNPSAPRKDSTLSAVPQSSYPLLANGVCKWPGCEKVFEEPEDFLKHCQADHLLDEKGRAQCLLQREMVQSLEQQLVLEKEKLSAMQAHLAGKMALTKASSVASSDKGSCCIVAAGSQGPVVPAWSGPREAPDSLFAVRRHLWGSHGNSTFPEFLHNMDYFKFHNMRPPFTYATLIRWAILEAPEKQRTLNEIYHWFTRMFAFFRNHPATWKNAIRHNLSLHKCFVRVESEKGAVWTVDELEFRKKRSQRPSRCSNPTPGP

effect of a mutation on the interaction: disrupting interaction strength
Substance: Serine/threonine-protein kinase pim-1 (Homo sapiens), P11309-1 K67M
